The text below walks through data of US20060204507A1 (LUDWIG INSTITUTE FOR CANCER RESEARCH, published 2006).

The assay addresses T1, HLA-Cw3 on target cells.
T1 construct: also called HLA-Cw*0304
Briefly: inferred from FW/92 T cell recognition of peptide-pulsed target cells with lactacystin (ELISPOT).

B1: Nonapeptide consisting of amino acids 13-21 of SEQ ID NO: 4 (peptide)
peptide: LAMPFATPM
As for B1, the binding result was “binds”.
